These results are taken from patent US20220348688A1 (PROMAB BIOTECHNOLOGIES, published 2022).

Assay [1] addresses T1, CD3 epsilon chain (CD3e) (human, UniProt P07766 23-207).
T1 construct: whole, on cells; also called CD3 antigen
Briefly: FACS on CD3-positive T cells.
From the text: The allophycocyanin (APC)-labeled anti-CD3 (eBioscience, San Diego, Calif.) antibody was used for FACS analysis using FACSCalibur (BD Biosciences).
CD3-positive T cells were used for testing binding to CD3.

In assay [2] the target is T1, CD3 epsilon chain (CD3e). Briefly: FACS.

T1 sequence (P07766 23-207): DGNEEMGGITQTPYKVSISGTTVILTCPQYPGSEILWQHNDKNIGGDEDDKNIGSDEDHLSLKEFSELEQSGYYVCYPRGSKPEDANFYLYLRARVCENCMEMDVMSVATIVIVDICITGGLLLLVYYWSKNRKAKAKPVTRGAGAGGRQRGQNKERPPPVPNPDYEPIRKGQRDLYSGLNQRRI

B1: PLAP h4-CD3e bispecific antibody (FIG. 1A structure) (bispecific antibody)
light: DIQMTQSPSSLSASVGDRVTITCRASENIYSYVAWYQQKPGKAPKLLIYNAKSLASGVPSRFSGSGSGTDFTLTISSLQPEDFATYYCQHHYVSPWTFGGGTKLEIKRTVAAPSVFIFPPSDEQLKSGTASVVCLLNNFYPREAKVQWKVDNALQSGNSQESVTEQDSKDSTYSLSSTLTLSKADYEKHKVYACEVTHQGLSSPVTKSFNRGEC
chain: QAVVTQEPSLTVSPGGTVTLTCGSSTGAVTTSNYANWVQEKPGQAFRGLIGGTNKRAPGTPARFSGSLLGGKAALTLSGAQPEDEAEYYCALWYSNLWVFGGGTKLTVLSSASTKGPSVFPLAPSSKSTSGGTAALGCLVKDYFPEPVTVSWNSGALTSGVHTFPAVLQSSGLYSLSSVVTVPSSSLGTQTYICNVNHKPSNTKVDKKVEPKSC
heavy 1: not shown
heavy 2: QVQLQESGPGLVKPSETLSLTCTVSGGSITSYGVSWIRQPPGKGLEWIGVIWEDGSTNYHSALISRVTISVDTSKNQFSLKLSSVTAADTAVYYCARPHYGSSYVGAMEYWGAGTTVTVSSTKGPSVFPLAPSSKSTSGGTAALGCLVKDYFPEPVTVSWNSGALTSGVHTFPAVLQSSGLYSLSSVVTVPSSSLGTQTYICNVNHKPSNTKVDKKVEPKSCDKTHTCPPCPAPEAAGGPSVFLFPPKPKDTLMISRTPEVTCVVVDVSHEDPEVKFNWYVDGVEVHNAKTKPREEQYNSTYRVVSVLTVLHQDWLNGKEYKCKVSNKALGAPIEKTISKAKGQPREPQVCTLPPSRDELTKNQVSLSCAVKGFYPSDIAVEWESNGQPENNYKTTPPVLDSDGSFFLVSKLTVDKSRWQQGNVFSCSVMHEALHNHYTQKSLSLSPGK
notes: Two PLAP Fab arms and one CD3e crossover Fab; knob-into-hole human IgG Fc with P329G, L234A, L235A; also called PLAP h4-CD3 antibody; PLAP h4-Cd3 antibody
As to B1, in assay [1], the binding result is listed as “binds”.

B2: PLAP h4-CD3e bivalent antibody (PBM0015), FIG. 1B structure (bispecific antibody)
light: DIQMTQSPSSLSASVGDRVTITCRASENIYSYVAWYQQKPGKAPKLLIYNAKSLASGVPSRFSGSGSGTDFTLTISSLQPEDFATYYCQHHYVSPWTFGGGTKLEIKRTVAAPSVFIFPPSDEQLKSGTASVVCLLNNFYPREAKVQWKVDNALQSGNSQESVTEQDSKDSTYSLSSTLTLSKADYEKHKVYACEVTHQGLSSPVTKSFNRGEC
heavy 1: not shown
heavy 2: QVQLQESGPGLVKPSETLSLTCTVSGGSITSYGVSWIRQPPGKGLEWIGVIWEDGSTNYHSALISRVTISVDTSKNQFSLKLSSVTAADTAVYYCARPHYGSSYVGAMEYWGAGTTVTVSSTKGPSVFPLAPSSKSTSGGTAALGCLVKDYFPEPVTVSWNSGALTSGVHTFPAVLQSSGLYSLSSVVTVPSSSLGTQTYICNVNHKPSNTKVDKKVEPKSCDKTHTCPPCPAPEAAGGPSVFLFPPKPKDTLMISRTPEVTCVVVDVSHEDPEVKFNWYVDGVEVHNAKTKPREEQYNSTYRVVSVLTVLHQDWLNGKEYKCKVSNKALGAPIEKTISKAKGQPREPQVCTLPPSRDELTKNQVSLSCAVKGFYPSDIAVEWESNGQPENNYKTTPPVLDSDGSFFLVSKLTVDKSRWQQGNVFSCSVMHEALHNHYTQKSLSLSPGK
notes: Two PLAP Fab arms; the CD3 scFv is attached to the C-terminal end of CH3 of the knob chain; also called bivalent PLAP h4-CD3 Ab; bivalent humanized PLAPh4-CD3 antibody
Turning to B2, the binding result in assay [2] was “binds”.
